One experiment has as its target T1, anti-FIXa-arm of ACE910.
T1 construct: Q499/J327; also called anti-FIXa side Fab of ACE910; anti-FIXa-F(ab')2
The experiment is described as follows: ELISA, hybridoma culture supernatant. The procedure: (§1) Mice and rats were immunized with anti-FIXa-F(ab′)2 or anti-FX-F(ab′)2. Cells obtained from the spleen removed from the mice or rats or from rat lymph nodes were subjected to cell fusion with mouse myeloma cells by following general methods to produce the hybridomas. The culture supernatants of the hybridomas were evaluated by ELISA which detects the binding of ACE910 to the anti-FIXa-arm or the anti-FX-arm, and ultimately, mouse antibodies, AQ8 and AQ1, and rat antibody, AQ512, which bind only to the anti-FIXa-arm but not to the anti-FX-arm of ACE910, and rat antibodies, AJ540, AJ114, AJ521, AJ522, and AJ541, which bind only to the anti-FX-arm but not to the anti-FIXa-arm of ACE910 were selected. In addition, the nucleotide sequences of the variable regions of the AQ8 antibody or the AJ540 antibody were analyzed. The nucleotide sequences of the variable regions of AQ8 and AJ540, and amino acid sequences predicted therefrom were analyzed using GENETYX Ver.9 (GENETYX CORPORATION).
For orientation: An ELISA detects its analyte on a solid surface through an enzyme-linked reagent.

For a further experiment, the target named is T2, anti-FX-arm of ACE910.
T2 construct: also called anti-FX side Fab of ACE910; anti-FX-F(ab')2
The experiment is described as follows: ELISA, hybridoma culture supernatant. As to the method:
as §1

The source of these data is patent US20180011114A1 (PUBLIC UNIVERSITY CORPORATION NARA MEDICAL UNIVERSITY, published 2018).

T1 sequence (VH, as listed by the source, chain 1 of 2): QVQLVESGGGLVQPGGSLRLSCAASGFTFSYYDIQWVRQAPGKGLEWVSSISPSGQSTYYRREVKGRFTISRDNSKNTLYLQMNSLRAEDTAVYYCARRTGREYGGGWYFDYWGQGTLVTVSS
T1 sequence (VL, as listed by the source, chain 2 of 2): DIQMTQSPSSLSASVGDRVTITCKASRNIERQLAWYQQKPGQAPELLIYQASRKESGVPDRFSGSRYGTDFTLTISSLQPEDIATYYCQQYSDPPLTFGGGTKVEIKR
T2 sequence (VH, as listed by the source, chain 1 of 2): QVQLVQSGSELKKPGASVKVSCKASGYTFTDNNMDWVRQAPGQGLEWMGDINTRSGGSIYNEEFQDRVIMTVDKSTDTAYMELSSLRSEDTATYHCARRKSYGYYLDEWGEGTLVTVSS
T2 sequence (VL, as listed by the source, chain 2 of 2): as the sequence (VL, as listed by the source, chain 2 of 2) above

B1: AJ540 (antibody, V domains shown)
VH: QIQLVQSGPELKKPGESVKISCKASGYTFTDYAMHWVKQVPGKGLKWMGWINTYTGKPTYADDFKGRFVFSLEASASTANLQISNLKNEDTANVFCAREGGGYYWYFDFWGPGTMVTVSS
VL: DIVMTQSPTSMSISVGDRVTMNCKANQNVDFNVDWYQQKTGQSPKLLIYKASNRYTGVPDRFTGSGSGTDFTFTISNMQAEDLAVYYCMQSNSFPLTFGSGTNLEIK
notes: Rat antibody from a hybridoma (culture supernatant in the ELISA); also called AJ540 antibody
As for B1, the binding result with anti-FIXa-arm of ACE910 is listed as “no binding”.

B2: AQ8 (antibody, V domains shown)
VH: EVNLVESGGGLVQPGGSMSLSCAASGFTFTDYYMSWVRQPPGKALEWLALIRNKANGYTTEYSASVKGRFTISRDNSQSILYLQMNALRAEDSATYYCARDSYYSYDGYAMDYWGQGTSVTVSS
VL: DIQMTQSPASLAASVGETITITCQASENIYFSLAWYQQKQGKSPQLLIYNTDSLKDGVPSRFSGSGSGTQYSMKINSMQPEDTATYFCRQSYDFPWTFGGGTKLEIK
notes: Mouse antibody from a hybridoma (culture supernatant in the ELISA); also called AQ8 antibody
Consider B2, for which the binding result with anti-FX-arm of ACE910 was “no binding”.
